Experimental data from patent US20040191271A1 (Pfizer, published 2004).

Biological target: the molecule itself
Experiment: size exclusion chromatography (Superdex 200), self-association of identical subunits

B1: Streptococcus pneumoniae undecaprenyl pyrophosphate synthase (enzyme)
chain: AVEVEVPTQVPAHIGIIMDGNGRWAKKRMQPRVFGHKAGMEALQTVTKAANKLGVKVITVYAFSTENWTRPDQEVKFIMNLPVEFYDNYVPELHANNVKIQMIGETDRLPKQTFEALTKAEELTKNNTGLILNFALNYGGRAEITQALKLISQDVLDAKINPGDITEELIGNYLFTQHLPKDLRDPDLIIRTSGELRLSNFLPWQGAYSELYFTDTLWPDFDEAALQEAILAYNRRHRRFGGV
notes: Homodimer of two identical subunits; Thrombin removed the tag before size exclusion and crystallization; also called UPS; UppS
binding result: binds
